According to patent US20230218743A1:
Where two headings read alike, the source gives them in different places.

Assays:
[1] = target: RBD-SD1 (SARS-CoV-2), P0DTC2; assay: epitope analysis, FIG. 3B; exponent as printed; details: remark: other sources report otherwise
[2] = target: RBD-SD1 (SARS-CoV-2), P0DTC2; details: remark: other sources report otherwise

B1: N-612-004 (antibody, V domains shown)
VH: EVQLVESGGGLVQPGGSLRLSCAASGFTFSSYYMHWVRQAPGKGLEWVSAISGSGGYTYYADSVKGRFTISRDNSKNTLYLQMNSLRAEDTAVYYCARDRDHAYDWGFDVWGQGTLVTVSS
VL: DIQMTQSPSSLSASVGDRVTITCQASQDISNYLNWYQQKPGKAPKLLIYDASNLETGVPSRFSGSGSGTDFTFTISSLQPEDIATYYCQQWADWPLTFGQGTKVEIK
Work on B1 yielded a koff [1] of 0.00034 s⁻¹, a Kd [2] of 2.95 nM and a koff [2] of 0.000937 s⁻¹. For the same binder, the kon [2] was 317000 M⁻¹ s⁻¹.
